Measurements taken from patent US20220153859A1 (ANOKION, published 2022).
Blank lines part the entries; values can stand above or below the binder they belong to.

Assays:
[1] = biological target: T1, Human glycophorin A on human erythrocytes (human, UniProt P02724 20-150); assay: FACS (flow cytometry) on human erythrocytes (hRBCs)
T1 construct: whole, on cells; Target of the flow cytometry assays on human erythrocytes; also called human GPA; hGPA
T1 sequence (looked up): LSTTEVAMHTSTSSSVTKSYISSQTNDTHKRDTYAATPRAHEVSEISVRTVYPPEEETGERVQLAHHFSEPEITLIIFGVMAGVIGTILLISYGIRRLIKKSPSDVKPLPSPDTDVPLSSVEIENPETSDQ
How it was run: (§1)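 Flow cytometry was used to measure Fab binding to human or cynomolgus erythrocytes, and this binding is reported as EC50. The Fabs had been picked through next-generation-sequencing enrichment and phage ELISA screens, then expressed in soluble form in HEK cells, with the top-ranking ones purified on CH1 resin.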

[2] = biological target: T2, Cynomolgus glycophorin A on cynomolgus erythrocytes (cynomolgus monkey); assay: FACS (flow cytometry) on cynomolgus erythrocytes (cRBCs)
T2 construct: whole, on cells; also called cyno GPA; cyno erythrocytes
How it was run: as §1

[3] = biological target: T3, Human glycophorin A extract (hGPA extract) (human, UniProt P02724 20-150); assay: Biacore SPR, hGPA extract, apparent KD; biphasic off-rate to fit data
T3 construct: also called human GPA extracted from red blood cells (extract)
T3 sequence (looked up): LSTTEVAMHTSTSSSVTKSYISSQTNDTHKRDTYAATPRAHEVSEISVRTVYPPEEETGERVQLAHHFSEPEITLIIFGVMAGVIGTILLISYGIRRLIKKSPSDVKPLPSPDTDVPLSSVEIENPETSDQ

[4] = biological target: T3, Human glycophorin A extract (hGPA …); assay: Biacore SPR, hGPA extract, apparent; biphasic off-rate to fit data
[5] = biological target: T3, Human glycophorin A extract (hGPA …); assay: Octet BLI, hGPA extract, apparent KD; biphasic off-rate to fit data
[6] = biological target: T1, Human glycophorin A on human …; assay: flow cytometry (FACS) on human erythrocytes, soluble Fab
[7] = biological target: T3, Human glycophorin A extract (hGPA …); assay: Octet BLI, hGPA extract, apparent; biphasic off-rate to fit data
[8] = biological target: T3, Human glycophorin A extract (hGPA …); assay: Biacore SPR, hGPA extract, apparent
[9] = biological target: T3, Human glycophorin A extract (hGPA …); assay: Biacore SPR, hGPA extract, apparent KD
[10] = biological target: T3, Human glycophorin A extract (hGPA …); assay: Octet BLI, hGPA extract, apparent
[11] = biological target: T3, Human glycophorin A extract (hGPA …); assay: Octet BLI, hGPA extract, apparent KD

B1: CDRL2_18 (Fab, V domains shown)
VH: QVQLVQSGAEVKKPGASVKVSCTASGFNIKDTYMLWVRQAPGQGLEWMGRIDPANANSRYDPKFQGRVTITADTSTNTAYMELSSLRSEDTAVYYCVDGYMFAYWGQGTLVTVSS
VL: DVVMTQTPLSLSVTPGQPASISCKSSQSLLYSNGKTYLHWLLQKPGQSPQRLIYLLNRLHSGVPDRFSGSGSGTDFTLKISRVEAEDVGVYYCVQGTHFPLTFGQGTKLEIKR
notes: copies: 1 + 1
EC50 [1]: 2.5 nM | EC50 [2]: 8.3 nM

B5: CDRL2_32 (Fab, V domains shown)
VH: QVQLVQSGAEVKKPGASVKVSCTASGFNIKDTYMLWVRQAPGQGLEWMGRIDPANANSRYDPKFQGRVTITADTSTNTAYMELSSLRSEDTAVYYCVDGYMFAYWGQGTLVTVSS
VL: DVVMTQTPLSLSVTPGQPASISCKSSQSLLYSNGKTYLHWLLQKPGQSPQRLIYLLNRLSSGVPDRFSGSGSGTDFTLKISRVEAEDVGVYYCVQGTHFPLTFGQGTKLEIKR
notes: copies: 1 + 1
EC50 [1]: 4.2 nM | EC50 [2]: 11.1 nM

B7: CDRH1_1 (Fab, V domains shown)
VH: QVQLVQSGAEVKKPGASVKVSCTASGFNIRATYILWVRQAPGQGLEWMGRIDPANANSRYDPKFQGRVTITADTSTNTAYMELSSLRSEDTAVYYCVDGYMFAYWGQGTLVTVSS
VL: DVVMTQTPLSLSVTPGQPASISCKSSQSLLYSNGKTYLHWLLQKPGQSPQRLIYLVSKLDSGVPDRFSGSGSGTDFTLKISRVEAEDVGVYYCVQGTHFPLTFGQGTKLEIKR
notes: copies: 1 + 1
EC50 [1]: 4.3 nM | EC50 [2]: 11.6 nM

B8: CDRL2_49 (Fab, V domains shown)
VH: QVQLVQSGAEVKKPGASVKVSCTASGFNIKDTYMLWVRQAPGQGLEWMGRIDPANANSRYDPKFQGRVTITADTSTNTAYMELSSLRSEDTAVYYCVDGYMFAYWGQGTLVTVSS
VL: DVVMTQTPLSLSVTPGQPASISCKSSQSLLYSNGKTYLHWLLQKPGQSPQRLIYLLNRMSSGVPDRFSGSGSGTDFTLKISRVEAEDVGVYYCVQGTHFPLTFGQGTKLEIKR
notes: column Notes: 'ELISA Hit'; copies: 1 + 1
EC50 [1]: 4.4 nM | EC50 [2]: 13 nM

B10: CDRL2_33 (Fab, V domains shown)
VH: QVQLVQSGAEVKKPGASVKVSCTASGFNIKDTYMLWVRQAPGQGLEWMGRIDPANANSRYDPKFQGRVTITADTSTNTAYMELSSLRSEDTAVYYCVDGYMFAYWGQGTLVTVSS
VL: DVVMTQTPLSLSVTPGQPASISCKSSQSLLYSNGKTYLHWLLQKPGQSPQRLIYLNSRLHSGVPDRFSGSGSGTDFTLKISRVEAEDVGVYYCVQGTHFPLTFGQGTKLEIKR
notes: copies: 1 + 1
EC50 [1]: 4.4 nM | EC50 [2]: 8.3 nM

B11: Humanized & affinity matured 10F7-M10 Fab clone L1+2-5 (Fab)
heavy: EVQLLESGGGLVQPGKSLRLSCKASGYTFNSYFMHWVRQAPGKGLEWVGMIRPNGGTTDYNEKFKNRFTLSVDKSKNTAYLQMNSLRAEDTAVYYCARWEGSYYALDYWGQGTASTKGPSVFPLAPSSKSTSGGTAALGCLVKDYFPEPVTVSWNSGALTSGVHTFPAVLQSSGLYSLSSVVTVPSSSLGTQTYICNVNHKPSNTKVDKKVEPKSC
light: EITLTQSPATLSLSPGERATLSCRASSNVYNMYWYQQKPGQAPRLWIHRTSNLASGIPDRFSGSGSGTDYTLTISRLEPEDFAVYYCQQFTSSPYTFGQGTKVEVKRTVAAPSVFIFPPSDEQLKSGTASVVCLLNNFYPREAKVQWKVDNALQSGNSQESVTEQDSKDSTYSLSSTLTLSKADYEKHKVYACEVTHQGLSSPVTKSFNRGEC
notes: Soluble Fab from HEK cells; all domains other than VL are the same as wild-type 10F7-M10; also called YN-HR-N
Kd [3]: 10.2 nM | koff [4]: 0.00808 s⁻¹ | kon [4]: 795000 M⁻¹ s⁻¹ | Kd [5]: 10 nM | EC50 [6]: 8.8 nM | koff [7]: 0.0081 s⁻¹ | kon [7]: 790000 M⁻¹ s⁻¹

B12: Humanized & affinity matured 10F7-M10 Fab clone L1+2-35 (Fab)
heavy: EVQLLESGGGLVQPGKSLRLSCKASGYTFNSYFMHWVRQAPGKGLEWVGMIRPNGGTTDYNEKFKNRFTLSVDKSKNTAYLQMNSLRAEDTAVYYCARWEGSYYALDYWGQGTASTKGPSVFPLAPSSKSTSGGTAALGCLVKDYFPEPVTVSWNSGALTSGVHTFPAVLQSSGLYSLSSVVTVPSSSLGTQTYICNVNHKPSNTKVDKKVEPKSC
light: EITLTQSPATLSLSPGERATLSCRASSNVYWMYWYQQKPGQAPRLWIHHTSELASGIPDRFSGSGSGTDYTLTISRLEPEDFAVYYCQQFTSSPYTFGQGTKVEVKRTVAAPSVFIFPPSDEQLKSGTASVVCLLNNFYPREAKVQWKVDNALQSGNSQESVTEQDSKDSTYSLSSTLTLSKADYEKHKVYACEVTHQGLSSPVTKSFNRGEC
notes: Soluble Fab from HEK cells; all domains other than VL are the same as wild-type 10F7-M10; also called YW-HH-E
koff [8]: 0.00136 s⁻¹ | kon [8]: 81300 M⁻¹ s⁻¹ | EC50 [6]: 4.6 nM | Kd [9]: 16.7 nM | koff [10]: 0.0014 s⁻¹ | kon [10]: 81000 M⁻¹ s⁻¹ | Kd [11]: 17 nM

B13: Humanized & affinity matured 10F7-M10 Fab clone L1+2-28 (Fab)
heavy: EVQLLESGGGLVQPGKSLRLSCKASGYTFNSYFMHWVRQAPGKGLEWVGMIRPNGGTTDYNEKFKNRFTLSVDKSKNTAYLQMNSLRAEDTAVYYCARWEGSYYALDYWGQGTASTKGPSVFPLAPSSKSTSGGTAALGCLVKDYFPEPVTVSWNSGALTSGVHTFPAVLQSSGLYSLSSVVTVPSSSLGTQTYICNVNHKPSNTKVDKKVEPKSC
light: EITLTQSPATLSLSPGERATLSCRASSNVYWMYWYQQKPGQAPRLWIHHTSDLASGIPDRFSGSGSGTDYTLTISRLEPEDFAVYYCQQFTSSPYTFGQGTKVEVKRTVAAPSVFIFPPSDEQLKSGTASVVCLLNNFYPREAKVQWKVDNALQSGNSQESVTEQDSKDSTYSLSSTLTLSKADYEKHKVYACEVTHQGLSSPVTKSFNRGEC
notes: Soluble Fab from HEK cells; all domains other than VL are the same as wild-type 10F7-M10; also called YW-HH-D
koff [8]: 0.00214 s⁻¹ | kon [8]: 614000 M⁻¹ s⁻¹ | EC50 [6]: 3.7 nM | Kd [9]: 3.49 nM | koff [10]: 0.0021 s⁻¹ | kon [10]: 610000 M⁻¹ s⁻¹ | Kd [11]: 3.5 nM

B14: Humanized & affinity matured 10F7-M10 Fab clone L1+2-39 (Fab)
heavy: EVQLLESGGGLVQPGKSLRLSCKASGYTFNSYFMHWVRQAPGKGLEWVGMIRPNGGTTDYNEKFKNRFTLSVDKSKNTAYLQMNSLRAEDTAVYYCARWEGSYYALDYWGQGTASTKGPSVFPLAPSSKSTSGGTAALGCLVKDYFPEPVTVSWNSGALTSGVHTFPAVLQSSGLYSLSSVVTVPSSSLGTQTYICNVNHKPSNTKVDKKVEPKSC
light: EITLTQSPATLSLSPGERATLSCRASSNVFFMYWYQQKPGQAPRLWIHHTSVLASGIPDRFSGSGSGTDYTLTISRLEPEDFAVYYCQQFTSSPYTFGQGTKVEVKRTVAAPSVFIFPPSDEQLKSGTASVVCLLNNFYPREAKVQWKVDNALQSGNSQESVTEQDSKDSTYSLSSTLTLSKADYEKHKVYACEVTHQGLSSPVTKSFNRGEC
notes: Soluble Fab from HEK cells; all domains other than VL are the same as wild-type 10F7-M10; also called FF-HH-V
koff [8]: 0.00121 s⁻¹ | kon [8]: 250000 M⁻¹ s⁻¹ | EC50 [6]: 2.7 nM | Kd [9]: 4.82 nM | koff [10]: 0.0012 s⁻¹ | kon [10]: 250000 M⁻¹ s⁻¹ | Kd [11]: 4.8 nM

Continued by falling EC50 [1], values first:

EC50 [1]: 4.2 nM | EC50 [2]: 10.8 nM
B3: CDRH1_14 (Fab, V domains shown)
VH: QVQLVQSGAEVKKPGASVKVSCTASGFNIRNIYLLWVRQAPGQGLEWMGRIDPANANSRYDPKFQGRVTITADTSTNTAYMELSSLRSEDTAVYYCVDGYMFAYWGQGTLVTVSS
VL: DVVMTQTPLSLSVTPGQPASISCKSSQSLLYSNGKTYLHWLLQKPGQSPQRLIYLVSKLDSGVPDRFSGSGSGTDFTLKISRVEAEDVGVYYCVQGTHFPLTFGQGTKLEIKR
notes: column Notes: 'Duplicate ELISA hit'; copies: 1 + 1

EC50 [1]: 3.1 nM | EC50 [2]: 10.6 nM
B2: CDRH1_24 (Fab, V domains shown)
VH: QVQLVQSGAEVKKPGASVKVSCTASGFNIKTVYILWVRQAPGQGLEWMGRIDPANANSRYDPKFQGRVTITADTSTNTAYMELSSLRSEDTAVYYCVDGYMFAYWGQGTLVTVSS
VL: DVVMTQTPLSLSVTPGQPASISCKSSQSLLYSNGKTYLHWLLQKPGQSPQRLIYLVSKLDSGVPDRFSGSGSGTDFTLKISRVEAEDVGVYYCVQGTHFPLTFGQGTKLEIKR
notes: copies: 1 + 1

EC50 [1]: 3.1 nM | EC50 [2]: 10.6 nM
B4: CDRH1_15 (Fab, V domains shown)
VH: QVQLVQSGAEVKKPGASVKVSCTASGFNIRKTYILWVRQAPGQGLEWMGRIDPANANSRYDPKFQGRVTITADTSTNTAYMELSSLRSEDTAVYYCVDGYMFAYWGQGTLVTVSS
VL: DVVMTQTPLSLSVTPGQPASISCKSSQSLLYSNGKTYLHWLLQKPGQSPQRLIYLVSKLDSGVPDRFSGSGSGTDFTLKISRVEAEDVGVYYCVQGTHFPLTFGQGTKLEIKR
notes: copies: 1 + 1

EC50 [1]: 3.1 nM | EC50 [2]: 10.2 nM
B6: CDRH1_25 (Fab, V domains shown)
VH: QVQLVQSGAEVKKPGASVKVSCTASGFNIKHVYILWVRQAPGQGLEWMGRIDPANANSRYDPKFQGRVTITADTSTNTAYMELSSLRSEDTAVYYCVDGYMFAYWGQGTLVTVSS
VL: DVVMTQTPLSLSVTPGQPASISCKSSQSLLYSNGKTYLHWLLQKPGQSPQRLIYLVSKLDSGVPDRFSGSGSGTDFTLKISRVEAEDVGVYYCVQGTHFPLTFGQGTKLEIKR
notes: copies: 1 + 1

EC50 [1]: 2.8 nM | EC50 [2]: 10.1 nM
B9: CDRL2_37 (Fab, V domains shown)
VH: QVQLVQSGAEVKKPGASVKVSCTASGFNIKDTYMLWVRQAPGQGLEWMGRIDPANANSRYDPKFQGRVTITADTSTNTAYMELSSLRSEDTAVYYCVDGYMFAYWGQGTLVTVSS
VL: DVVMTQTPLSLSVTPGQPASISCKSSQSLLYSNGKTYLHWLLQKPGQSPQRLIYLSNRLHSGVPDRFSGSGSGTDFTLKISRVEAEDVGVYYCVQGTHFPLTFGQGTKLEIKR
notes: copies: 1 + 1
